Here are results for 4 molecules from patent US7238491, “Pregnane X receptor method” (SmithKline Beecham Corporation).

In data set [1] the target is T1, hPXR/hRXR heterodimer (RXR isoform not stated) (Homo sapiens, UniProt O75469;P19793 O75469:1-434,P19793:1-462). Briefly: competition; efficient competitor of IR6 probe at 10- or 50-fold excess in EMSA. The conditions noted are these: tags: none; TNT rabbit reticulocyte lysate. How it is done: (§1) Band Shift Assays hPXR, mPXR1, and hRXR were synthesized in vitro using the TNT rabbit reticulocyte lysate coupled in vitro transcription/translation system (Promega) according to the manufacturer's instructions. Gel mobility shift assays (20 µl) contained 10 mM Tris (pH 8.0), 40 mM KCl, 0.05% NP-40, 6% glycerol, 1 mM DTT, 0.2 µg of poly(dI-dC) and 2.5 µl each of in vitro synthesized PXR and RXR proteins. Competitor oligonucleotides were included at a 10-fold or 50-fold excess. After a 10 min incubation on ice, 10 ng of [^32P]-labeled oligonucleotide was added and the incubation continued for an additional 10 min. DNA-protein complexes were resolved on a 4% polyacrylamide gel in 0.5×TBE (1×TBE=90 mM Tris, 90 mM boric acid, 2 mM EDTA). Gels were dried and subjected to autoradiography at –70° C. The following oligonucleotides were used as either radiolabeled probes or competitors (sense strand is shown):
(§2) In order to determine whether hPXR interacted directly with the CYP3A4 IR6 response element, band shift assays were performed.

Data set [2] deals with T2, mPXR1/hRXR heterodimer (Mus musculus / Homo sapiens, UniProt O54915;P19793 O54915:1-431,P19793:1-462). As to the kind of experiment: competition; same profile as hPXR/RXR; competes with IR6 probe. To be noted: tags: none; TNT rabbit reticulocyte lysate. The procedure:
as §1, §2

The target of data set [3] is T1, hPXR/hRXR heterodimer (RXR isoform not …). As to the kind of experiment: EMSA; 10 mM Tris pH 8.0, 40 mM KCl, 0.05% NP-40, 6% glycerol, 1 mM DTT, poly(dI-dC), on ice; self-competed by unlabeled IR6. To be noted: tags: none; TNT rabbit reticulocyte lysate; label: 32P (probe). How it is done:
as §1, §2

Another data set has as its target hRXR (Homo sapiens, UniProt P19793 P19793:1-462). Briefly: EMSA; RXR alone without PXR. To be noted: tags: none; TNT rabbit reticulocyte lysate; label: 32P (probe). How it is done:
as §1, §2

In data set [4] the target is T2, mPXR1/hRXR heterodimer. As to the kind of experiment: EMSA; same binding profile as hPXR/RXR. To be noted: tags: none; TNT rabbit reticulocyte lysate; label: 32P (probe). How it is done: as §1, §2
A general note: Mobility shift assays separate free from complexed probe on a gel.

In data set [5] the target is T2, mPXR1/hRXR heterodimer. As to the kind of experiment: competition; same profile as hPXR/RXR; little or no competition. To be noted: tags: none; TNT rabbit reticulocyte lysate. The procedure:
as §1, §2

For data set [6], the target named is T1, hPXR/hRXR heterodimer (RXR isoform not …). Briefly: competition; little or no competition at 10- or 50-fold excess in EMSA. To be noted: tags: none; TNT rabbit reticulocyte lysate. How it is done:
as §1, §2

T1 sequence (O75469 whole entry, chain 1 of 2, canonical isoform): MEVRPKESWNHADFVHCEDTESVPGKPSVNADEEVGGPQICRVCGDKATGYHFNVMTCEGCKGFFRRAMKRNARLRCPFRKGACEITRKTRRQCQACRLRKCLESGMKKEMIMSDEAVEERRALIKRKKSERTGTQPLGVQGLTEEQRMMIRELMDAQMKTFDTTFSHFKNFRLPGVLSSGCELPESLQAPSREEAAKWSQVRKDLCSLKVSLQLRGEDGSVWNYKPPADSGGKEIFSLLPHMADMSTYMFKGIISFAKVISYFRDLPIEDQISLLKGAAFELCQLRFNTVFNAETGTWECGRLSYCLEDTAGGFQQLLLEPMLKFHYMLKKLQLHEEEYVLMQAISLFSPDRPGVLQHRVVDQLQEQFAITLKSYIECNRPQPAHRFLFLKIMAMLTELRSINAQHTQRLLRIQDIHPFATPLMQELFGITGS
T1 sequence (P19793 whole entry, chain 2 of 2, canonical isoform): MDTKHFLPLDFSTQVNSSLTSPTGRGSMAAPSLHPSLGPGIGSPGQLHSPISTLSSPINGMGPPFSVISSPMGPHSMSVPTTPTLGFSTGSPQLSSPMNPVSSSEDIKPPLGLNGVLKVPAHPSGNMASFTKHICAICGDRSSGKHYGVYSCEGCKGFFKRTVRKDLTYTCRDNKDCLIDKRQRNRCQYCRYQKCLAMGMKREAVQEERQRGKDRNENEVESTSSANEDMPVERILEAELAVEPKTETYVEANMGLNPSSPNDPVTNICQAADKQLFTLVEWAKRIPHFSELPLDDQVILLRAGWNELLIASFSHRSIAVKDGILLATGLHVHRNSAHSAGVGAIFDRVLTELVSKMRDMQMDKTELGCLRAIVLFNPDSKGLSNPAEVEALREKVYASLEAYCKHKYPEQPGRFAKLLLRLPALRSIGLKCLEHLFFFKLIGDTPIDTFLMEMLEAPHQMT
T2 sequence (O54915 whole entry, chain 1 of 2): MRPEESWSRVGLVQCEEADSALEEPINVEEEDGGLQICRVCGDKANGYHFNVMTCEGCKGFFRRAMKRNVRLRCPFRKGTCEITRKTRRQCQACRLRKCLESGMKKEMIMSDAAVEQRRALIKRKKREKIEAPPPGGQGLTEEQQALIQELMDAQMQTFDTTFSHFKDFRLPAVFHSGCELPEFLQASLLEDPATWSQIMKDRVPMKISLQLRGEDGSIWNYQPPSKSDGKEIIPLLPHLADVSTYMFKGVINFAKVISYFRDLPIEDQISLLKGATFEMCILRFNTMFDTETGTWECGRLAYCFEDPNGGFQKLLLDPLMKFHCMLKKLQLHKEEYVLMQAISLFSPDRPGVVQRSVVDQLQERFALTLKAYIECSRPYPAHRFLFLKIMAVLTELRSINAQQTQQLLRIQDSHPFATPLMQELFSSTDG
T2 sequence (P19793 whole entry, chain 2 of 2): as the sequence (P19793 whole entry, chain 2 of 2, canonical isoform) above
Sequence of hRXR (P19793 whole entry, one chain of several): as the sequence (P19793 whole entry, chain 2 of 2, canonical isoform) above

B1: CYP3A1 DR3 PXRE (dsDNA)
DNA 1: GATGCAGACAGTTCATGAAGTTCATCTAGATC
DNA 2: GATCTAGATGAACTTCATGAACTGTCTGCATC
Take B1: the binding result (in data set [1]; with mPXR1/hRXR heterodimer [2]) was “binds” each time.

B2: CYP3A4 IR6 PXRE (dsDNA)
DNA 1: GATCAATATGAACTCAAAGGAGGTCAGTG
DNA 2: CACTGACCTCCTTTGAGTTCATATTGATC
With B2, the binding result is reported as “binds” in data set [3], “no binding” with hRXR and “binds” with mPXR1/hRXR heterodimer [4].

B3: CYP3A4 IR6 m2 (dsDNA)
DNA 1: GATCAATAACAACTCAAAGGAGGTCAGTG
DNA 2: CACTGACCTCCTTTGAGTTGTTATTGATC
On to B3, for which the binding result (in the data set with mPXR1/hRXR heterodimer [5]; in data set [6]) was “no binding” each time.

B4: CYP3A4 IR6 m1 (dsDNA)
DNA 1: GATCAATATGTTCTCAAAGGAGAACAGTG
DNA 2: CACTGTTCTCCTTTGAGAACATATTGATC
On to B4, for which the binding result (in the data set with mPXR1/hRXR heterodimer [5]; in data set [6]) was “no binding” in each case.
